This note sets out measurements from patent publication US20190365894A1 (GMAX BIOPHARM, published 2019).

Test [1] has as its target T1, human endothelin A receptor (hETAR) (human, UniProt P25101 21-427).
T1 construct: Expressed on stably transfected CHO-DHFR- cells; also called human endothelin receptor; CHO-DHFR-hETAR
T1 sequence: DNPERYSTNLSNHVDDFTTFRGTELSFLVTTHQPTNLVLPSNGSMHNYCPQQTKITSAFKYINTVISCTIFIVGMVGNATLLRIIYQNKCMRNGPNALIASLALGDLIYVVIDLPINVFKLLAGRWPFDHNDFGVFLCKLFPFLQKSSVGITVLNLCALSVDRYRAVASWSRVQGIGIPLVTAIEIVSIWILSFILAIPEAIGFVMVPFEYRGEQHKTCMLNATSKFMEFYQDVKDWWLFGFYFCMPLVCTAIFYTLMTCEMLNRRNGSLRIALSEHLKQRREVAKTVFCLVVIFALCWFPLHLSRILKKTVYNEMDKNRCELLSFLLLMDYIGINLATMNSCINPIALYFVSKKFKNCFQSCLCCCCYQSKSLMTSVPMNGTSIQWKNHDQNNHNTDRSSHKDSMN
In words: FACS on CHO-DHFR-ETAR cells against CHO-DHFR- cells. As for the experimental part: PBS containing 10 mM EDTA was used to detach and collect 10⁵ CHO-DHFR-hETAR cells into a 1.5 mL EP tube. The supernatant was removed after centrifugation and the negative control sample was resuspended with a loading buffer (PBS, 2% FBS). For the positive control, 200 μL antibody supernatant was added to resuspension cells and incubation at room temperature; the cells were then centrifuged at 1500 rpm to remove the supernatant, washed with a FACS loading buffer and centrifuged again. The cells were resuspended with addition (200 μL/well) of a FITC labeled goat anti-mouse fluorescent antibody at 1:50 dilution (BD Pharmingen) and incubated at room temperature for 30 min in the dark. Supernatant was removed after centrifugation, cells were washed with FACS loading buffer, centrifuged again and resuspended with the loading buffer for analysis.

The target in test [2] is T1, human endothelin A receptor (hETAR). Briefly: cell-based or functional assay.

Numbering of substitutions follows the chain as printed.

B1: anti-ETAR antibody A-2 (antibody, V domains shown)
VH: QIQLVQSGAELAKPGASVRMSCETSGYTFTSYWIHWIKERPGQGLEWIGYINPDTDYSEYNQKFKDKARLTADKSSTTAYMELNSLTFDDSAVYYCASAGYYFFDFWGQGTTLTVSS
VL: DIQMTQSPASLSTSVGETVTITCRASENIYSYLAWYQQRQGKSPHLLVNNAKTLAEGVPSRFSGSGSGTHFSLRISGLQPEDFGSYYCQHHYGIPFTFGGGTKLSIKR
notes: also called L2H2
As for B1, in test [1], the binding result is “binds”.

B2: anti-ETAR antibody A-12 (antibody, V domains shown)
VH: EVKLVESGGRLVQPGNSLRLSCATSGFTFSDYYMSWVRQTPGRALEWLSFIRNRANGYTTEYSASVKGRFTISRDNSQSILYLHMSTLRPEDSATYYCVRDSYHYGYFDVWGAGTTVTVSS
VL: EIQMTQTPSSLSASLGDRVTITCSASQGINNYLNWYQQKPGGKTRLLIYYTSTLQSGVPSRFSGSGSGTHYSLTISNLEPEDIATYYCQQFSKLRTFGGGTRLEIKR
notes: also called L12H12
Regarding B2, the binding result in test [1] is reported as “binds”.

B3: anti-ETAR antibody A-9 (antibody, V domains shown)
VH: EVQLQQPGGGLVQPGGSLTLSCATSGFTFSSYGMSWVRQTPAKRLELVATISTNGATANYPDSVKGRFTISRDNAKSTLYLQMRSLKSEDTAMYYCATEKGAMGYWGQGTSVTVSS
VL: DVLMTQTPLSLPVSLGDQASISCRSSQNIVHSTGNTYLEWYLQKPGQSPKLLIYKVSNRFSGVPNRFRGSGSGTDFTLKITRVEAEDLGIYYCFQGSHFPFTFGSGTKLEIKR
Consider B3, for which the “calcium flux assay, inhibition of human ETAR (IC50)” value in test [2] turned out to be 87.8 nM.

B4: anti-ETAR antibody A-7 (antibody, V domains shown)
VH: EVHLVESGGGLVQPGGSLKLSCAASGFTFSTYGMSWVRQTPDKRLELVATINTNGGTTYYRDSVKGRFTISRDNAKNTLYLQMSSLKSDDTAMYYCARDYGAMDYWGQGTSVTVSS
VL: B3 VL with Q18H, N28Y, N35T, K50Q, N65D, R68T, K79R, T81S, I90V, Y92F
notes: also called L7H7
Regarding B4, in test [1], the binding result is given as “binds”.

B5: anti-ETAR antibody A-1 (antibody, V domains shown)
VH: QVTLKESGPGILQPSQTLSLTCSFSGFSLTTSGLGVAWIRQPSGKGLEWLAHIWSDGDTRYYPALKNRLTISKDSSSNQVFLKIARVDTADTATYYCARMKDDSLYFDNWGQGTIFTVSS
VL: DILLTQSPAILSVSPGKRVSFSCRASQNIGTSIHWYQQRTNGSPRLLIKYASKSISGISSRFSGSGSGTDFTLSINSVESEDIAAYYCQHSYSWPWTFGGGTKLEIKR
Consider B5, for which the “calcium flux assay, inhibition of human ETAR (IC50)” value in test [2] was determined as 37.9 nM.
